Data reported in the DeepSol protein solubility set.

Assay: soluble on expression in E. coli; label from the status in PepcDB or PDB records

| Sequence | soluble on expression in E. coli |
| --- | --- |
| MAHHHHHHMSVKNTFGTQAAKALCANLYTNWLSEDENVERIRDLLNRVLTLSATDQHSEMGAKNAASMTTAAAAAAGDKKGKAAGADALGNGARHSDPAVGLSTSSAAIHGNADRAQSPQPSPPQKSDKSAAALAADDRTPSPIQPSTSPTLIARFPGGVDELDYPHRAGSPVVTPVSPQPKPIVDPSAPLPHVGTGSLSPHGVHSLGSPRLDTTLNAAMVSGDLTIPLDASSTLSTTARESTTRFLHTSGSFAVTPPANLKQATLDEIPCFYSKRESRGLQIEVDVEEAQELSRLLEKNDPVKKTVWVFGDISSKVFKVPIWYKEALFKDIATRSGLDAATADTLTAAQIRTVYNDVYAPLSVSRRLYELICTHPKKEFITLSDLEGMGKYLVAAHPGLQFLQQPEFQEYYWHTVAVRIMYMLERQQCGRIYWRDFDRSDLPERMMELDAKDVNLVLDYFSYEHFYVLYCKFWELDTDRDLLVGFEDLCNYGQGSVVTGVIKRVVEGYGRPLSSGVPGKMDFEDFVYFCLSEEDKNSEPAVLYWFKVLDTDEDGVLSGYEMMQFFEENQQRFLEFSDSPEGDIAYEDTVCQMLDMVGFDRVKVRKYGVTLGDLRSCPTPANFFNMIFNASKFLLFEHRDPFGEHQMRLRVEKTEWDRFARAEYDRMAAEAQ | not soluble |
| MAHHHHHHMTAHVDRCVFFSKMGACRHGDQCTKLHYRPDTSPTVLFPLMYPNPHAIEHIKDREWNFELDKKYLKKHFEHFYKEVWRTFMEFGRIAELRVVSNLGDHLLGNVYIRFEDPQVATRIVKELRGKKLNDIIVLPELSPVTNFAEACCKEDLENRCQRGEQCNYLHIMKVSRRLLEKLEKEQSKYWKKKERRHEHSSSDRKRSRSRSPADTRW | soluble |
| MAHHHHHHMTAQILLYTDCIPQVFSPLKGEREGLLDSQQFANITTNCNTAFACGDPSLNTRISPYMRLSYFHNVTRIRNRKAHISHDIAGDCYVHYKTTCGGIILRPNVRLRPRGRSHRNRVSPRNVIFAAIFLNHRRNGLNRHIDRLNQILQKIIGNIAQTRYG | not soluble |
| MAHHHHHHMTDMHTTLSRVILVAMLHDVADHKYDSDGTLRHRVEAFIKEERNATIETAESHAYALQTIEAVSFSAEKQRGKRWFTSVLPTEWLRVRDIVSDADKLEAIGYAGLLRCLEYTSHLLLPRGKTTEGEQHMKEGGEGRPHWSREFERQCLQNVREHFEEKLNLLPTEYIVTEPGRFLALPRRAEMVEALHQWEENGLPPLS | not soluble |
| MAHHHHHHMTRKVAGDMWDSRVEASLPALNYLRTAQQLQKKADELSRAQERVHRLQEDNSALLLENELLKRERDALLCKVQFLELNEHGHCTTNDIVGPWGNVRSVPAGGLGSTTGGDLSPVFKDNVNKASETRVNISEQARTHTNSEQQDLHNPKEETILCPLSASSETLINTNRPDANIETFHRSTESHVEYCANGECRSPISMTRTTQTVAYERRVPSVERGTMTTMNIYICSYQSLPSKAGAFFEVPLSNVETAIHHDPESLTSITIPRS | not soluble |
| MAHHHHHHMTSTVTAVNQTQSLAAIRNFVRASVSCITYARGLCSDNAYEQRPFLGLPLRQLIPSTTESITISEWIEKGAFDALNRNYLKEMSLCVYDAACHELLESYCFGFNYTGDGERAQMTLNASQTIADGSKTTAVSQSSGGAVGIPAYRKRRCTKQEVQHLLTSILERLMDVVESLPPLLSERVLTMRLTYYDAVTPASYEPPCFAPASEHMARLYQAEVKHHVNIGSMDTSHHLFSVAIRHPLLQQIHRQMTGRTTSAVATKTGGSPLSAGKIAAVSTPSDPLRSGWESSFSSDPAVASAVAAAGATVTHGVVASHASCGLLLCADGEGAAFDAENAGEEKAAGSSLGEVGGGGACTARTGETLRPCEVAKLDGVYRLMEKSTSGDERRLLRPAELTYLLFAAFVFTKAPSARGGRGELKADEVEAYRALRCPFDVSAKTVLLVLQRLSREDFLQPCNARGAPAPKMPKAEEGSRPTPAIRAWLVPDPPASLLQQLMQVDAVTELLTHESHLVLQELSVYLAREEWRRAPRTMTAKATSGRISTTGGSGKRRSSR | soluble |
| MAHHHHHHMVDDILKCIHNEFKYVLISCDINNEIKELTFKGSEEKFQNTLGSYFRRIIFDEKGKDELKESIKEKLKTNDKNDEDKEKVNTISPDIINNAIESSQTYQIIPLTIPNEKNDFLGINCYIDDIGRIKKLPYNSRASRICSTEIYGDAFLSKTYDNEDFKRCDFTISEYDEFLKNPPKSENRWDQAQAMQNLLKQMKGQNDAGVNDEAPTEKVNACEHCYKEQNLKRCGRCKKVYYCSVECQKSDYVFHKRICS | soluble |
| MAHHHHHHMVIFDDVENSNRVGGNEGGIRPIFVQLTPNAPLPSEEYLRLVALSKAPPPPDSEGSTLHSARNCRERSARVNGRRSPTKTNVRPRPPVTATQKWGDNAMSLINSKEEAVQRHEFALHVRGARYCRLLETMLDSSDLQLEPLHYDPKDPNMGRRPNGTEGNPANSLPPVILPQATQKGCVALFTYLDLITKRVPSMLSKPLRAPLEELVQPWELEFLLYSCMGDDVRNAITHIDEDGTADKRGRAPTNDTRPSYYSTILEKAPRSVDLLLEVALLSDFLLVEPLRQLTCAFIASLALNASSEEELLQLSGLQRPMTEDELEPLYYQFPFLRPDNHAKN | not soluble |
| MAHHHHHHMVNEYHEAPRPAITLPRPGTKFRASAVEPILKKVCQTLVGDRAYAHEDVQPLIKEICSEIQQRVVRLGYERYKFVTHATVTEAVNQGIRIASRGLWDPVTDGYASYTFSTETMHVNVVLYALYWE | not soluble |
| MAHHHHHHMVNFILNEAKDKAHEIEAKALEDFNIEKLRIVQKMKEKIRVEFQKKAKQMEIKRSIARSSAINKARLKKMCAKDQVFKEIYKISSDKLNDLYKDKDKYKNLIVDLIVQSLFYMQEPHVIVRCRDIDKAVVESSLNEAVSKYTDKLKKQFNVTKTVKIELDKSGNYLPPPPTPENEGNSCLGGVILTTPNRKINCDNTLDVRLKLAIEYCTPEIKRMFFENA | not soluble |
| MAHHHHHHMVTAVASVVFARFLRQRYPTVQRVSQYENLSTSPDAPCFVANRILTMTSSQAGTHADGPHHFCRSLSHRNYDDAHYSGDAVVLDIATELREHHQSLDPDASLAITVEVLEKARVKLPAAFRDGSRPVWRLLLVTRHSTATSPTSASATEALTGPPRVFFPLDVASPTQVATVGVKGGTAATLAEPSSNAYAFLYPEAVDYLHRVFPRLVLLGIDSPSVDLPQAMPPGQHSHGALLRCGIAILENLRYTRLSPLLESPAGNNQRGWISGSMLTVFNATQNYDDARGCSVIFFPEEAL | soluble |
| MAHHHHHHMVWFSAPDNSEFLGDPLPRKARQPKVHLATEVSVEASVPWEDVSSWECGSQTSRNSSRSSTSDNAANGHVANINKFHDRMELIRRLNKRRRNNSTCRESGRTEQWTCQPLYVGVSTFPEMKEMSPKSVGGENVPFWNGAVVHDSPLMTDRSGSEVDKKPLKTRKCAWNLTYVRKNDWPEAHQMHEGDAII | not soluble |
| MAHHHHHHMWQHHNLSSPTLGPREAKPTVQTSRRGCMRSDAWCSSLAGGGHDDPSESVPNSRVSPRASSFAPPQRTAPSPTESTSQELFELQNCNHHKQQQKQQLVIRQEDIRDDDFQRLEVLGDGSYSVVVSARHLPTQQLVALKEVSRHRLRELKLEKQLQWEINVHRTLRHPNVVRMLSYYITPQTVVLVLEMCPGGTLLQKLKTMPGGRFDERRASRYVRQAARALTYLHGHGIAHRDLKLENIFLDAHGVARLGDFGWSKALVEPTVEQDLSSHHDNFGTAPCSAAKDVSPLCSGGRGRLTVCGTLDYLSPEMLIGMPHTFKTDVWSLGVMLAEMLTGAPPFYCVSQQDTLNAIREAAPHLGDDVQMSSLARELVLAMLQKNPDARPTMAEVLQHPWTRQNGEKKKKKK | soluble |
| MAHHHHHHSLMLVVRPISMADYEALHTCAVESGHGFTSLPVDQELLTNRITHSEYSFSKPNVTMPGDEGYLMVGVDTETGQVAGTTGIEASIGWDVPFYSYHISTIVHSSPKLGVNNVVKLLTFGNNYTGCSEICTLFLRPQYRQGLNGRLMSKCRFLMMAEHSHRFSKTIFAEMRGVSDADGNSPFWKWLQEHFFSIDFTLADYLTGIGKKGFIADLMPKLPIYVNLLSKEAQAVIGQVHENTRPALVLLEKEGFTCRNYVDIFDAGPTVECELNNIESVRHSVRAIVEVAEHSSSQNFIMCNTSFENFRATAAKAAYSQEDNAVIISPKVAAALEVSTGDYLRILAQEG | not soluble |
| MAHHHHHHSLRGIIKRLNDDGFGILYNKILVPFSAPGDEVEVLKTEKQKRAKIATEWRLLRSSPIRVGARCKVFGKCGGCILQHINYNSQLEFKKEKLRKILGREVEIIPSPRIFGHRNRIDLAVTVNAIGFREKGKWWSVVDVEECPVFGKTSKKAIERLREYIEEEKVSTWKIREDSGFLRYMVLREGKFTGEIMVNFVTKEGELPDPTSYFDFADSIYWSINRSKSDVSYGDIEKYWGKEFIMEELDGVKYLIHPNSFFQTNSYQAVNLVKTVEKFVEGEKVVDMYSGVGTFGVYLAKKGMKVVGFDSNAFAIEMANKNAEINNVEAEFFVASDREVDIKGFDTVIVDPPRAGLHPKLVKRLNDHGPETIVYVSCNPKTFKVNIEQLNNYIIEELIALDMFPHTPHIELVGKLRRLVEG | soluble |
| MAHHHHHHSLRLKEQSLQVTTKTGKESQKKTQTTAKSTITVDIKGAVKHEGVYTLPIDSRINDVIEKAGGFSEKADRKSVNLAQKLQDEAVIYVAAIGENISVIRDSQEGKTSQADKANTKETSVKGKVNLNTATLADLQTISGIGEKKAQDILDYREANGGFKSVDDLKNISGIGDKTFEKLKDLVSVDEG | soluble |
| MAHHHHHHSLRMTQAKTYKVSRDETQHGKDSEHHLIAGYNSSMRLWHNEEPSDTADKTPRSHEYETLGYVISGQVELTVDGQTLTLSAGDSYRVPKGAEHVFRVTETLTAVEVTTPATNKEG | soluble |
| MAHSKHGLKEEMTMKYHMEGCVNGHKFVITGEGIGYPFKGKQTINLCVIEGGPLPFSEDILSAGFMYGDRIFTEYPQDIVDYFKNSCPAGYTWGRSFLFEDGAVCICNVDITVSVKENCIYHKSIFNGMNFPADGPVMKKMTTNWEASCEKIMPVPKQGILKGDVSMYLLLKDGGRYRCQFDTVYKAKSVPSKMPEWHFIQHKLLREDRSDAKNQKWQLTEHAIAFPSALA | soluble |
| MAIEIPNMIQIGSTGRNSGKTTLAEALIKQYQEVYPIYGLKIITISGQRGVCQRGTKGCGICTSITAGYELVEEQETIGNKDTMKLLAAGCQKVFLLKVFQENLAEAIQQFLKAVPAQALIICESNSLRNVVQPGLFLMMNNQNRQKESAKKVIDKADFCLLSAEIPKKLRIYYQGEQLQVSLKRGNKKECVH | not soluble |
| MAISKKKRFFFDLAQDEDDAETVQEVKKVEQQLKLEPVVQPQHDLTNQTKANQSSQDRKFFSKDMPQFDFGPLLKFGDEFVKSFNQFPKQEPQTSTQPVNVQPQSEPTNFNNQVPTQPVHQTAEVHLNEFQQPTTTNFNQQPVATSNIQVEATQPIVEPVPQPEPQPAVEQPQVKQTTRPSNKLQEEENLPPPKAKVPGIIPLERQERLTTGVHFYTSTRVWNKVKRYAKAVNIPISRILTMILDQVIEE | soluble |
| MAISLRQLEIFEKVAQCEHVTQASTQLFLTQSAVSMAIAELERVAGAPLFERRGKRLLLNDRGRKILPEAEEVVRRTRAIEQFLEDSAGEPRGVLNVGASTTIGNYILPELIAEFSGNYPDAKVLLTIGNAHQIEHALEKGELDLGLIEGIPHSGVLDSTPWKKDELVVVVGKGHPWACDGAASVEMLGNAPWIMRETGSGTREVFEGAMAGKGISFSISLELGHTEAIKKAIEAGLGVGCLSRIAVNRELEHGWLVEIACPLDLKRTLSLQTRQSGYKTRLLCAFWSLLNRHKDI | not soluble |
